{"source": "paper doi:10.1101/321604", "target": "mUHRF1 C-terminally tagged with GFP- and 6xHis-tag (mouse) (UniProt Q8VDF2)", "sequence (Q8VDF2 whole entry)": "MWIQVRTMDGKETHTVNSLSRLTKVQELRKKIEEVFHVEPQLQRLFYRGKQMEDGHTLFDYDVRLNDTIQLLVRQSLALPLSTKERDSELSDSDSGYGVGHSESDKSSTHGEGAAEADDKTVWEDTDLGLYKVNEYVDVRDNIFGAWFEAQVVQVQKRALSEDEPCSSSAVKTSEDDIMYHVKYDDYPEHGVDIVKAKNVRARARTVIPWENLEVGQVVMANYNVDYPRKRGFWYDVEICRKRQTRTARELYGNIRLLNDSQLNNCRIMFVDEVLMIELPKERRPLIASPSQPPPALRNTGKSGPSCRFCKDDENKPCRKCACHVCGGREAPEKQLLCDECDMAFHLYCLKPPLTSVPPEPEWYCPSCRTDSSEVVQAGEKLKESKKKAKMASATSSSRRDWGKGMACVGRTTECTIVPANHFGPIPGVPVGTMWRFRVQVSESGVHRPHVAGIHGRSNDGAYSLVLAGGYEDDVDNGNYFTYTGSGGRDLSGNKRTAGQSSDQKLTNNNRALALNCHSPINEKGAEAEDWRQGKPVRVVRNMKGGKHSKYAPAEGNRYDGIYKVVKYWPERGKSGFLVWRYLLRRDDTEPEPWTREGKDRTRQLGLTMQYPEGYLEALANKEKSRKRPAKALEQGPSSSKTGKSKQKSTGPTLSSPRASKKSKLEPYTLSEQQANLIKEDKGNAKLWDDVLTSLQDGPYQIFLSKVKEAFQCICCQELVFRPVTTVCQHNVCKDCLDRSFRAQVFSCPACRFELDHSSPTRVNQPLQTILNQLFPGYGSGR", "assay": "MST", "data": [{"substance": "GST-mDPPA3 wild-type (from UniProt Q8QZY3 1-150) (natural protein)", "values": [{"measurement": "Kd", "value": 440, "unit": "nM"}]}]}
